Measurements: patent EP4786492A1
Substitutions are numbered along the chain they refer to.

Legend:
[1] = molecular target: DLL3 endogenously expressed on NCI-H82 cells (UniProt Q9NYJ7); test: FACS on NCI-H82 cells; antibody 4 nM
[2] = molecular target: DLL3 endogenously expressed on NCI-H82 cells (UniProt Q9NYJ7); test: FACS on NCI-H82 cells; antibody 20 nM
[3] = molecular target: DLL3 endogenously expressed on NCI-H82 cells (UniProt Q9NYJ7); test: FACS on NCI-H82 cells; antibody 0.16 nM
[4] = molecular target: human DLL3 protein expressed on CHO-K1 recombinant cells (human DLL3 extracellular segment fused to EpCAM transmembrane and intracellular regions) (human) (UniProt Q9NYJ7); test: FACS, CHO-K1 hDLL3 cells, 4 nM antibody
Chain of human DLL3 protein expressed on CHO-K1 recombinant cells (human DLL3 extracellular segment fused to EpCAM transmembrane and intracellular regions) (human) (Q9NYJ7 other isoform, or with tags, fused parts or gaps limits assumed): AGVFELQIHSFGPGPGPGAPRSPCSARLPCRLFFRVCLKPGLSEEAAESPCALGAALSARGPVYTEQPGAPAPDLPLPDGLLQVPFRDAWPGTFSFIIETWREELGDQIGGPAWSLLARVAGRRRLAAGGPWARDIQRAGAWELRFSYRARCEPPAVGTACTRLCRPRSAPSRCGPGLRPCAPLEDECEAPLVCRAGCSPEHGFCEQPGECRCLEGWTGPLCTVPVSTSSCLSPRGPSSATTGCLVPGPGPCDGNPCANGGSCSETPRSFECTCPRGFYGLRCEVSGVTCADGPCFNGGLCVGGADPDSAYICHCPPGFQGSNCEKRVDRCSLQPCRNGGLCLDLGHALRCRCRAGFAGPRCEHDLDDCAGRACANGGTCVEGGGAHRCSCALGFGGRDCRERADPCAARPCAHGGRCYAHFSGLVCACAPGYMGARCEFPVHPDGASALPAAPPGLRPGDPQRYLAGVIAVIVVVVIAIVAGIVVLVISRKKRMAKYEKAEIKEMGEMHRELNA

[5] = molecular target: mouse DLL3 on CHO-K1-mDLL3 cells (mouse) (UniProt O88516); test: FACS, CHO-K1-mDLL3 cells, 20 nM antibody
Chain of mouse DLL3 on CHO-K1-mDLL3 cells (mouse) (O88516 other isoform, or with tags, fused parts or gaps limits assumed): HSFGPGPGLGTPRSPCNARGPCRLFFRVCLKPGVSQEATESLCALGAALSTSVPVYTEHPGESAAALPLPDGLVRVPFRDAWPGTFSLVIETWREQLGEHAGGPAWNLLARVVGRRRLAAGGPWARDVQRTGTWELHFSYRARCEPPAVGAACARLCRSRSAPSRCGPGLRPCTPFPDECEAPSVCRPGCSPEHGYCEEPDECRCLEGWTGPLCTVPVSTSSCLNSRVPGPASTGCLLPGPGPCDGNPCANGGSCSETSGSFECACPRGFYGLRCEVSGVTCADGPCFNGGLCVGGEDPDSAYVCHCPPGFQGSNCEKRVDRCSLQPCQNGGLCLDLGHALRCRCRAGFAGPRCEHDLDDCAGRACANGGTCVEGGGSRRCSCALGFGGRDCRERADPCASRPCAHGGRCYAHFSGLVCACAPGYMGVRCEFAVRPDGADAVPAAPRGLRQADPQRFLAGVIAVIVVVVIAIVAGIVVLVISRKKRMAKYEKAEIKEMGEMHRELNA

[6] = molecular target: human DLL3 protein expressed on CHO-K1 recombinant cells (human DLL3 extracellular segment fused to EpCAM transmembrane and intracellular regions) (human) (UniProt Q9NYJ7); test: FACS, CHO-K1 hDLL3 cells, 0.00128 nM antibody
[7] = molecular target: human DLL3 protein expressed on CHO-K1 recombinant cells (human DLL3 extracellular segment fused to EpCAM transmembrane and intracellular regions) (human) (UniProt Q9NYJ7); test: FACS, CHO-K1 hDLL3 cells, 0.16 nM antibody
[8] = molecular target: human DLL3 protein expressed on CHO-K1 recombinant cells (human DLL3 extracellular segment fused to EpCAM transmembrane and intracellular regions) (human) (UniProt Q9NYJ7); test: FACS, CHO-K1 hDLL3 cells, 100 nM antibody
[9] = molecular target: monkey DLL3 on CHO-K1-cyno DLL3 cells (cynomolgus monkey); test: FACS, CHO-K1-cyno DLL3 cells, 0.0064 nM antibody
Chain of monkey DLL3 on CHO-K1-cyno DLL3 cells (cynomolgus monkey) (chain, as listed by the source limits assumed): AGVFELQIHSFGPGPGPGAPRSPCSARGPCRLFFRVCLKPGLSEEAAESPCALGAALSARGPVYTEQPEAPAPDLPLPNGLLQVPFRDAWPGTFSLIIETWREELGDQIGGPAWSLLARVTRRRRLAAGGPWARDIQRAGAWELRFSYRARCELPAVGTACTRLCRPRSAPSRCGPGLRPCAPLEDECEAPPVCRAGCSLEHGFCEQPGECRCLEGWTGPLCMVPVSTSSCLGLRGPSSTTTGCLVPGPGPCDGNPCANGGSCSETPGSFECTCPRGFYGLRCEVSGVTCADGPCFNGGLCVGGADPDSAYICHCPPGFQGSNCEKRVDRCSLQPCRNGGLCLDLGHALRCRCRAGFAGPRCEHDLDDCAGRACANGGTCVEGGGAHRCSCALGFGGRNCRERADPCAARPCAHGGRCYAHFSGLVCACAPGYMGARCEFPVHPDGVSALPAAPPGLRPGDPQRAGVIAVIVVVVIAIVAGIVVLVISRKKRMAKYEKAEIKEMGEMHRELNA

[10] = molecular target: monkey DLL3 on CHO-K1-cyno DLL3 cells (cynomolgus monkey); test: FACS, CHO-K1-cyno DLL3 cells, 0.032 nM antibody
[11] = molecular target: monkey DLL3 on CHO-K1-cyno DLL3 cells (cynomolgus monkey); test: FACS, CHO-K1-cyno DLL3 cells, 20 nM antibody
[12] = molecular target: human DLL3 protein expressed on CHO-K1 recombinant cells (human DLL3 extracellular segment fused to EpCAM transmembrane and intracellular regions) (human) (UniProt Q9NYJ7); test: FACS, CHO-K1 hDLL3 cells, 0.0064 nM antibody
[13] = molecular target: DLL3 endogenously expressed on NCI-H82 cells (UniProt Q9NYJ7); test: FACS on NCI-H82 cells; antibody 100 nM
[14] = molecular target: human DLL4 protein (Acro, Cat. No. DL4-H5227) (human) (UniProt Q9NR61); test: ELISA, coated hDLL4; maximum over 0.1, 1, 10, 100 nM antibody
Chain of human DLL4 protein (Acro, Cat. No. DL4-H5227) (human) (Q9NR61 27-524 limits assumed): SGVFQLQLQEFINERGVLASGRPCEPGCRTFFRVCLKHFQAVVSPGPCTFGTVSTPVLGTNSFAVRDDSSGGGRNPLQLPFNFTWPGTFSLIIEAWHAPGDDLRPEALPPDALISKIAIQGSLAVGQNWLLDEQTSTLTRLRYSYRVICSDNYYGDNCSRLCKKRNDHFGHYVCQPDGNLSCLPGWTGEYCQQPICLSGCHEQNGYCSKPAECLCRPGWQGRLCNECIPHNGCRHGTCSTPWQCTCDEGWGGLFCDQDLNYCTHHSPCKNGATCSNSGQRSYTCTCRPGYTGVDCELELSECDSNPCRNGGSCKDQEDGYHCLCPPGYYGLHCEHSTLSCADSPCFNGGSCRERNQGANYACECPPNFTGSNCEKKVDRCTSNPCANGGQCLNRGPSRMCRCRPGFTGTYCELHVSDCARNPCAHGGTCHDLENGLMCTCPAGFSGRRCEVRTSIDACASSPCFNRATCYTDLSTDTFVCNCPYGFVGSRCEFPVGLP

[15] = molecular target: mouse DLL3 on CHO-K1-mDLL3 cells (mouse) (UniProt O88516); test: FACS, CHO-K1-mDLL3 cells, 100 nM antibody
[16] = molecular target: DLL3 endogenously expressed on NCI-H82 cells (UniProt Q9NYJ7); test: FACS on NCI-H82 cells; antibody 0.00128 nM
[17] = molecular target: monkey DLL3 on CHO-K1-cyno DLL3 cells (cynomolgus monkey); test: FACS, CHO-K1-cyno DLL3 cells, 0.8 nM antibody
[18] = molecular target: DLL3 endogenously expressed on NCI-H82 cells (UniProt Q9NYJ7); test: FACS on NCI-H82 cells; antibody 0.8 nM
[19] = molecular target: human delta-like ligand 3 (DLL3) on SHP77 cells (human) (UniProt Q9NYJ7); test: FACS on SHP77 cells
Chain of human delta-like ligand 3 (DLL3) on SHP77 cells (human) (Q9NYJ7 27-618, stated change not applied): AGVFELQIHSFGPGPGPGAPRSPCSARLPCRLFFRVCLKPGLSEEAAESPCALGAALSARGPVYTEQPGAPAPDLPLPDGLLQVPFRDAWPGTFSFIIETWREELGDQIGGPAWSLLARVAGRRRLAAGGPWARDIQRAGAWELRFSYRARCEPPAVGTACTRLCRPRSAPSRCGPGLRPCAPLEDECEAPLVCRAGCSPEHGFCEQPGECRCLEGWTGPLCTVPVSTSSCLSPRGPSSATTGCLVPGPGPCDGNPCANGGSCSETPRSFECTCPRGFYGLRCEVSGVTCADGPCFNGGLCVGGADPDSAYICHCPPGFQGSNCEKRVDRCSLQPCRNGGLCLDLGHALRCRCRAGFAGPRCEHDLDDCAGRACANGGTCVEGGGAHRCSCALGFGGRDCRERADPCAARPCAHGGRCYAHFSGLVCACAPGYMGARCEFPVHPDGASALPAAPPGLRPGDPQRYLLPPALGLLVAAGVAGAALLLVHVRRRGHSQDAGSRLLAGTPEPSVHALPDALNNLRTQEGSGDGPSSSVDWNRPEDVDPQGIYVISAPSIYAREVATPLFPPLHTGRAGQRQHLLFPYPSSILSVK

[20] = molecular target: human DLL3 protein expressed on CHO-K1 recombinant cells (human DLL3 extracellular segment fused to EpCAM transmembrane and intracellular regions) (human) (UniProt Q9NYJ7); test: FACS, CHO-K1 hDLL3 cells, 20 nM antibody
[21] = molecular target: mouse DLL3 on CHO-K1-mDLL3 cells (mouse) (UniProt O88516); test: FACS, CHO-K1-mDLL3 cells, 0.0064 nM antibody
[22] = molecular target: monkey DLL3 on CHO-K1-cyno DLL3 cells (cynomolgus monkey); test: FACS, CHO-K1-cyno DLL3 cells, 0.16 nM antibody
[23] = molecular target: mouse DLL3 on CHO-K1-mDLL3 cells (mouse) (UniProt O88516); test: FACS, CHO-K1-mDLL3 cells, 4 nM antibody
[24] = molecular target: human DLL3 protein expressed on CHO-K1 recombinant cells (human DLL3 extracellular segment fused to EpCAM transmembrane and intracellular regions) (human) (UniProt Q9NYJ7); test: FACS, CHO-K1 hDLL3 cells, 0.8 nM antibody
[25] = molecular target: mouse DLL3 on CHO-K1-mDLL3 cells (mouse) (UniProt O88516); test: FACS, CHO-K1-mDLL3 cells, 0.032 nM antibody
[26] = molecular target: monkey DLL3 on CHO-K1-cyno DLL3 cells (cynomolgus monkey); test: FACS, CHO-K1-cyno DLL3 cells, 4 nM antibody
[27] = molecular target: monkey DLL3 on CHO-K1-cyno DLL3 cells (cynomolgus monkey); test: FACS, CHO-K1-cyno DLL3 cells, 0.00128 nM antibody
[28] = molecular target: mouse DLL3 on CHO-K1-mDLL3 cells (mouse) (UniProt O88516); test: FACS, CHO-K1-mDLL3 cells, 0.8 nM antibody
[29] = molecular target: DLL3 endogenously expressed on NCI-H82 cells (UniProt Q9NYJ7); test: FACS on NCI-H82 cells; antibody 0.0064 nM
[30] = molecular target: mouse DLL3 on CHO-K1-mDLL3 cells (mouse) (UniProt O88516); test: FACS, CHO-K1-mDLL3 cells, 0.00128 nM antibody
[31] = molecular target: DLL3 endogenously expressed on NCI-H82 cells (UniProt Q9NYJ7); test: FACS on NCI-H82 cells; antibody 0.032 nM
[32] = molecular target: monkey DLL3 on CHO-K1-cyno DLL3 cells (cynomolgus monkey); test: FACS, CHO-K1-cyno DLL3 cells, 100 nM antibody
[33] = molecular target: human DLL3 protein expressed on CHO-K1 recombinant cells (human DLL3 extracellular segment fused to EpCAM transmembrane and intracellular regions) (human) (UniProt Q9NYJ7); test: FACS, CHO-K1 hDLL3 cells, 0.032 nM antibody
[34] = molecular target: mouse DLL3 on CHO-K1-mDLL3 cells (mouse) (UniProt O88516); test: FACS, CHO-K1-mDLL3 cells, 0.16 nM antibody
[35] = molecular target: human DLL1 protein (Acro, Cat. No. DL1-H52H8) (human) (UniProt O00548); test: ELISA, coated hDLL1; maximum over 0.1, 1, 10, 100 nM antibody
Chain of human DLL1 protein (Acro, Cat. No. DL1-H52H8) (human) (O00548 18-540 limits assumed): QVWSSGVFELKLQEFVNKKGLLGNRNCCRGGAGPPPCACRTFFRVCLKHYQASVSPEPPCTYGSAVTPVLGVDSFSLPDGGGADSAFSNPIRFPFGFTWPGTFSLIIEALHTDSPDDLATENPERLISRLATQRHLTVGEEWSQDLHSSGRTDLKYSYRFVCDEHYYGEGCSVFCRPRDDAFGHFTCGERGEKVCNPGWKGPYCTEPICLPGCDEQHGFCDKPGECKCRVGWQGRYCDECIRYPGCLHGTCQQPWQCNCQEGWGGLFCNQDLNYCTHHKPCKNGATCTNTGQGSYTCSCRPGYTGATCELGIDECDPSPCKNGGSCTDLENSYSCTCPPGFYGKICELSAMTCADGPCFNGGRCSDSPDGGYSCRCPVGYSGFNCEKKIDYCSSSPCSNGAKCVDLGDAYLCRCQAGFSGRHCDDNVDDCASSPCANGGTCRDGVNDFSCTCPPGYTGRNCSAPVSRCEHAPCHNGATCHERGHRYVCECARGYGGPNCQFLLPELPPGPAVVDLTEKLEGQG

[36] = molecular target: human DLL3 protein (extracellular segment, His tag) (human) (UniProt Q9NYJ7); test: SPR (Biacore 8K), antibody captured on Protein A chip, DLL3 antigen in solution, 1:1 Langmuir fit
Chain of human DLL3 protein (extracellular segment, His tag) (human) (Q9NYJ7 27-492): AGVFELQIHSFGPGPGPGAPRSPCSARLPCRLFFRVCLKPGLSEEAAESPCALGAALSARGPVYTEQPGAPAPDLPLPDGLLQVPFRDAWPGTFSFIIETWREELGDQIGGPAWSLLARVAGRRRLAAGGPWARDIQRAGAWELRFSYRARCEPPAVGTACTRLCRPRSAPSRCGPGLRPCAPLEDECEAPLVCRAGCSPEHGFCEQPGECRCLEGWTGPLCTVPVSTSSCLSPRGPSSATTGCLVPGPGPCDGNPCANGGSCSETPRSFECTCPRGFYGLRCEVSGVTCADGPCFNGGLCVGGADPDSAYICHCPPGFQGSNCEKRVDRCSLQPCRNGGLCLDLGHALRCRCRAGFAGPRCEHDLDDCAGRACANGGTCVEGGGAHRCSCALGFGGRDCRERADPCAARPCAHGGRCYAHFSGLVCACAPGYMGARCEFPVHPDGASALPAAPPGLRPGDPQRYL

Chain of DLL3 endogenously expressed on NCI-H82 cells (Q9NYJ7 27-618): as the sequence (Q9NYJ7 27-618, stated change not applied) above

B1: Hab015VL4VH1a-hFc (scFv, part only; not given: scFv linker and human IgG1 Fc, V domains shown, not shown: another chain or arm of the molecule; a dimerising Fc or GST; small tags and cut ends)
VL: NIVLTQSPATLSLSPGERATLSCKASENVGTYVSWFQQKPGQSPRLLIYGASNRYTGIPARFSGSGSGTDFTLTISSLEPEDFAVYYCGQFYSFPSTFGGGTKVEIK
VH: EVQLVESGGGLVKPGGSLRLSCAASGITFSNFWMNWVRQAPGKGLEWVGQIRLKSDDYATHYAESVKGRFTISREDSKNTVYLQMNSLKTEDTAVYYCTTGYYFDYWGQGTTVTVSS
MFI [1]: 1060
MFI [2]: 1200
MFI [3]: 489
MFI [4]: 7920 MFI
MFI [5]: 1150 MFI
MFI [6]: 122 MFI
MFI [7]: 941 MFI
MFI [8]: 11400 MFI
MFI [9]: 168 MFI
MFI [10]: 399 MFI
MFI [11]: 6720 MFI
MFI [12]: 152 MFI
MFI [13]: 1520
Emax of OD450 nm binding value [14]: 0.65 OD450 nm
MFI [15]: 1450 MFI
MFI [16]: 118
MFI [17]: 4470 MFI
MFI [18]: 993
MFI at 0.00128 nM [19]: 99 MFI
MFI at 0.0064 nM [19]: 112 MFI
MFI at 0.032 nM [19]: 174 MFI
MFI at 0.16 nM [19]: 385 MFI
MFI at 0.8 nM [19]: 730 MFI
MFI at 4 nM [19]: 762 MFI
MFI at 20 nM [19]: 962 MFI
MFI at 100 nM [19]: 1240 MFI
MFI [20]: 10600 MFI
MFI [21]: 123 MFI
MFI [22]: 1240 MFI
MFI [23]: 1040 MFI
MFI [24]: 5070 MFI
MFI [25]: 172 MFI
MFI [26]: 5910 MFI
MFI [27]: 123 MFI
MFI [28]: 779 MFI
MFI [29]: 137
MFI [30]: 117 MFI
MFI [31]: 213
MFI [32]: 7590 MFI
MFI [33]: 294 MFI
MFI [34]: 339 MFI
Emax of OD450 nm binding value [35]: 0.44 OD450 nm

B2: Hab009VL1aVH1-hFc (scFv, part only; not given: scFv linker and human IgG1 Fc, V domains shown, not shown: another chain or arm of the molecule; a dimerising Fc or GST; small tags and cut ends)
VL: DIVMTQSPLSLPVTPGEPASISCRASQTISDYLHWYLQKPGQSPQLLIKYASQSISGVPDRFSGSGSGSDFTLKISRVEAEDVGVYYCQQGHSFPLTFGQGTKLEIK
VH: EVQLVQSGAEVKKPGASVKVSCKASGYTFTSYWMHWVRQAPGQRLEWMGTIYPGNSDTRYNQKFKDRVTITADTSASTAYMELSSLRSEDTAVYYCTRSYDYGDLDYWGQGTTVTVSS
Kd [36]: 0.325 nM
koff [36]: 0.00194 s⁻¹
kon [36]: 5.96e+06 M⁻¹ s⁻¹
MFI [4]: 11900 MFI
MFI [5]: 383 MFI
MFI [6]: 199 MFI
MFI [7]: 5840 MFI
MFI [8]: 12900 MFI
MFI [9]: 178 MFI
MFI [10]: 423 MFI
MFI [11]: 27100 MFI
MFI [12]: 452 MFI
Emax of OD450 nm binding value [14]: 0.08 OD450 nm
MFI [15]: 400 MFI
MFI [17]: 6880 MFI
MFI at 0.00128 nM [19]: 107 MFI
MFI at 0.0064 nM [19]: 129 MFI
MFI at 0.032 nM [19]: 205 MFI
MFI at 0.16 nM [19]: 430 MFI
MFI at 0.8 nM [19]: 692 MFI
MFI at 4 nM [19]: 783 MFI
MFI at 20 nM [19]: 855 MFI
MFI at 100 nM [19]: 969 MFI
MFI [20]: 12400 MFI
MFI [21]: 109 MFI
MFI [22]: 1640 MFI
MFI [23]: 367 MFI
MFI [24]: 11000 MFI
MFI [25]: 166 MFI
MFI [26]: 19900 MFI
MFI [27]: 120 MFI
MFI [28]: 327 MFI
MFI [30]: 86 MFI
MFI [32]: 27000 MFI
MFI [33]: 1540 MFI
MFI [34]: 258 MFI
Emax of OD450 nm binding value [35]: 0.05 OD450 nm

B3: Hab009VL2aVH1-hFc (scFv, part only; not given: VL-VH linker and human IgG1 Fc, V domains shown, not shown: another chain or arm of the molecule; a dimerising Fc or GST; small tags and cut ends)
VL: B2 VL with Q45R, S69T
VH: B2 VH
Kd [36]: 0.328 nM
koff [36]: 0.0019 s⁻¹
kon [36]: 5.79e+06 M⁻¹ s⁻¹
MFI [4]: 12700 MFI
MFI [5]: 398 MFI
MFI [6]: 210 MFI
MFI [7]: 5930 MFI
MFI [8]: 13100 MFI
MFI [9]: 3160 MFI
MFI [10]: 5450 MFI
MFI [11]: 28200 MFI
MFI [12]: 476 MFI
Emax of OD450 nm binding value [14]: 0.06 OD450 nm
MFI [15]: 438 MFI
MFI [17]: 24300 MFI
MFI at 0.00128 nM [19]: 108 MFI
MFI at 0.0064 nM [19]: 128 MFI
MFI at 0.032 nM [19]: 201 MFI
MFI at 0.16 nM [19]: 432 MFI
MFI at 0.8 nM [19]: 683 MFI
MFI at 4 nM [19]: 784 MFI
MFI at 20 nM [19]: 825 MFI
MFI at 100 nM [19]: 929 MFI
MFI [20]: 12600 MFI
MFI [21]: 238 MFI
MFI [22]: 13700 MFI
MFI [23]: 358 MFI
MFI [24]: 12000 MFI
MFI [25]: 272 MFI
MFI [26]: 27600 MFI
MFI [27]: 1340 MFI
MFI [28]: 338 MFI
MFI [30]: 172 MFI
MFI [32]: 28400 MFI
MFI [33]: 1610 MFI
MFI [34]: 300 MFI
Emax of OD450 nm binding value [35]: 0.07 OD450 nm
